These results are taken from patent publication US20190315854A1 (BEIJING VDJBIO, published 2019).

The target of assay [1] is T1, sIL-6R (soluble IL-6 receptor; SBH Sciences) (human, UniProt P08887 20-365).
T1 construct: also called human IL-6R
T1 sequence: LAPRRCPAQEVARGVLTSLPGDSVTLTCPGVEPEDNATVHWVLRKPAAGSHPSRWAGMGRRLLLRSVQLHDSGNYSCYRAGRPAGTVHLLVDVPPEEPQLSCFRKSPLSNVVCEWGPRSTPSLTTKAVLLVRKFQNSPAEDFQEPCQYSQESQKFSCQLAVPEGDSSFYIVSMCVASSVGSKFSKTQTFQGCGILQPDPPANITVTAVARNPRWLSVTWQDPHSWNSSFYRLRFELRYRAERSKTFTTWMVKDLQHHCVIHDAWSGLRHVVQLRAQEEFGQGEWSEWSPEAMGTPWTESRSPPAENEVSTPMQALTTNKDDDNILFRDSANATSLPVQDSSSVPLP
As to the kind of experiment: SPR (BIAcore 3000), antibody on chip, sIL-6R analyte, 25 C. How it is done: (§1) All SPR measurements were performed on a BIAcore 3000 instrument (GE Biosciences, Piscataway, N.J.). BIAcore Software-BIAcore 3000 Control Software V3.2 was used for the operation and control of the BIAcore 3000 instrument. BiaEvaluation Software V4.1 was used for the analysis of SPR data from the BIAcore 3000 instrument and data was plotted using Graph Pad Prism Software Version 5. […] The indicated antibodies were used as the ligand for the construction of the reference channel of the chip. […] Each sample was injected for 3 min at a flow rate of 30 μL/min to allow for binding to chip-bound antibody. Next, binding buffer without analyte was sent over the chip at the same flow rate to allow for dissociation of bound analyte. After 500s, remaining bound analyte was removed by injecting regeneration solution (1M Formic acid). Data was analyzed by using the Kinetics Wizard and the manual fitting programs that are both included with the BiaEvaluation Software V4.1.

The target in assay [2] is T1, sIL-6R (soluble IL-6 receptor; SBH …). Described as above. On the procedure: as §1
This is another data set of the same source.

Where two headings read alike, the source gives them in different places.

B1: 3# (antibody, human IgG1, kappa, V domains shown)
VH: QVQLQESGPGLVRPSQTLSLTCTVSGYSITSDHAWSWVRQPPGRGLEWIGYISYSGITTYNPSLKSRVTMLRDTSKNQFSLRLSSVTAADTAVYYCARSLARATAMDYWGQGSLVTVSS
VL: DIQMTQSPSSLSASVGDRVTITCRASQDISSYLNWYQQKPGKAPKLLIYYTSRLHSGVPSRFSGSGSGTDFTFTISSLQPEDIATYYCQQGNTLPYTFGQGTKVEIKR
notes: also called Sample # 3
For B1, in assay [1], the Kd (usually the free concentration of one partner at which half of the binding sites on the other are occupied at equilibrium, for simple one-to-one binding) turned out to be 0.273 nM; the “Relative Affinity” value was 4.9 fold vs 25 (Tocilizumab); the koff (usually the first-order rate constant of dissociation) was 5.8e-05 s⁻¹; the kon (commonly the rate constant with which the complex forms) was 213000 M⁻¹ s⁻¹. Besides, in assay [2], binding was put at a Kd of 0.435 nM, the “Relative Affinity” value was 3.9 fold vs 25 (Tocilizumab), the koff stood at 8.87e-05 s⁻¹ and the kon worked out at 204000 M⁻¹ s⁻¹.

B2: 15# (antibody, human IgG1, kappa, V domains shown)
VH: QVQLQESGPGLVRPSQTLSLTCTVSGYSITSDHAWSWVRQPPGRGLEWIGFISYSGITTYNPSLKSRVTMLRDTSKNQFSLRLSSVTAADTAVYYCARCLARITAMDYWGQGSLVTVSS
VL: DIQMTQSPSSLSASVGDRVTITCRASQDISSYLNWYQQKPGKAPKLLIYYTSRLHSGVPSRFSGSGSGTDFTFTISSLQPEDIATYYCQQGNTLPYTFGQGTKVEIKR
notes: also called Sample # 15
As for B2, in assay [1], the Kd was 0.145 nM, the “Relative Affinity” value is 9.2 fold vs 25 (Tocilizumab), the koff turned out to be 4.49e-05 s⁻¹ and the kon turned out to be 310000 M⁻¹ s⁻¹. Moreover, in assay [2], the affinity, expressed as Kd, was 0.2 nM; the “Relative Affinity” value was 8.6 fold vs 25 (Tocilizumab); the koff is 5.97e-05 s⁻¹; the kon amounted to 298000 M⁻¹ s⁻¹.

B3: 9# (antibody, human IgG1, kappa, V domains shown)
VH: QVQLQESGPGLVRPSQTLSLTCTVSGYSITSDHAWSWVRQPPGRGLEWIGYISYSGIITYNASLKSRVTMLRDTSKNQFSLRLSSVTAADTAVYYCARCLARTTAMDYWGQGSLVTVSS
VL: DIQMTQSPSSLSASVGDRVTITCRASQDISSYLNWYQQKPGKAPKLLIYYTSRLHSGVPSRFSGSGSGTDFTFTISSLQPEDIATYYCQQGNTLPYTFGQGTKVEIKR
notes: also called Sample # 9
On to B3, for which, in assay [1], the Kd was determined as 0.249 nM, the “Relative Affinity” value was 5.4 fold vs 25 (Tocilizumab), the koff amounted to 5.94e-05 s⁻¹ and the kon amounted to 239000 M⁻¹ s⁻¹. Moreover, in assay [2], the Kd came out at 0.32 nM, the “Relative Affinity” value was 5.3 fold vs 25 (Tocilizumab), the koff was found to be 6.28e-05 s⁻¹ and the kon is 196000 M⁻¹ s⁻¹.

B4: 16# (antibody, human IgG1, kappa, V domains shown)
VH: QVQLQESGPGLVRPSQTLSLTCTVSGYSITSDHAWSWVRQPPGRGLEWIGFISYSGITTYNPSLKSRVTMLRDTSKNQFSLRLSSVTAADTAVYYCARSLARITAMDYWGQGSLVTVSS
VL: DIQMTQSPSSLSASVGDRVTITCRASQDISSYLNWYQQKPGKAPKLLIYYTSRLHSGVPSRFSGSGSGTDFTFTISSLQPEDIATYYCQQGNTLPYTFGQGTKVEIKR
notes: also called Sample # 16
For the molecule B4, in assay [1], the Kd amounted to 0.136 nM, the “Relative Affinity” value is 9.8 fold vs 25 (Tocilizumab), the koff amounted to 4.04e-05 s⁻¹ and the kon was determined as 296000 M⁻¹ s⁻¹. Further, in assay [2], binding was characterised by a dissociation constant (Kd) of 0.187 nM, the “Relative Affinity” value is 9.1 fold vs 25 (Tocilizumab), the koff amounted to 6.3e-05 s⁻¹ and the kon was found to be 336000 M⁻¹ s⁻¹.

B5: 11# (antibody, human IgG1, kappa, V domains shown)
VH: QVQLQESGPGLVRPSQTLSLTCTVSGYSITSDHAWSWVRQPPGRGLEWIGFISYSGITTYNPSLKSRVTMLRDTSKNQFSLRLSSVTAADTAVYYCARSLARATAMDYWGQGSLVTVSS
VL: DIQMTQSPSSLSASVGDRVTITCRASQDISSYLNWYQQKPGKAPKLLIYYTSRLHSGVPSRFSGSGSGTDFTFTISSLQPEDIATYYCQQGNTLPYTFGQGTKVEIKR
notes: also called Sample # 11
Consider B5, for which, in assay [1], the Kd came out at 0.0863 nM, the “Relative Affinity” value is 15.5 fold vs 25 (Tocilizumab), the koff was found to be 2.38e-05 s⁻¹ and the kon was 275000 M⁻¹ s⁻¹. Further, in assay [2], the affinity, expressed as Kd, was 0.112 nM; the “Relative Affinity” value is 15.3 fold vs 25 (Tocilizumab); the off-rate (koff) worked out at 3.08e-05 s⁻¹; the kon is 276000 M⁻¹ s⁻¹.

B6: 26# (antibody, human IgG1, kappa, V domains shown)
VH: QVQLQESGPGLVRPSQTLSLTCTVSGYSITSDHAWSWVRQPPGRGLEWIGYISYSGMTTYNPSLKSRVTMLRDTSKNQFSLRLSSVTAADTAVYYCARSLARTTAMDYWGQGSLVTVSS
VL: DIQMTQSPSSLSASVGDRVTITCRASQDISSYLNWYQQKPGKAPKLLIYYTSRLHSGVPSRFSGSGSGTDFTFTISSLQPEDIATYYCQQGNTLPYTFGQGTKVEIKR
notes: also called Sample # 26
As for B6, in assay [1], the dissociation constant (Kd) was found to be 0.42 nM, the “Relative Affinity” value was 3.2 fold vs 25 (Tocilizumab), the koff came to 0.000102 s⁻¹ and the association rate constant (kon) amounted to 243000 M⁻¹ s⁻¹.

B7: 12# (antibody, human IgG1, kappa, V domains shown)
VH: QVQLQESGPGLVRPSQTLSLTCTVSGYSITSDHAWSWVRQPPGRGLEWIGFISYSGITTYNPSLKSRVTMLRDTSKNQFSLRLSSVTAADTAVYYCARCLARATAMDYWGQGSLVTVSS
VL: DIQMTQSPSSLSASVGDRVTITCRASQDISSYLNWYQQKPGKAPKLLIYYTSRLHSGVPSRFSGSGSGTDFTFTISSLQPEDIATYYCQQGNTLPYTFGQGTKVEIKR
notes: also called Sample # 12
In the case of B7, in assay [1], the equilibrium dissociation constant (Kd) came out at 0.288 nM, the “Relative Affinity” value is 4.6 fold vs 25 (Tocilizumab), the koff worked out at 8.32e-05 s⁻¹ and the kon is 289000 M⁻¹ s⁻¹. Moreover, in assay [2], the Kd is 0.418 nM, the “Relative Affinity” value is 4.1 fold vs 25 (Tocilizumab), the koff came out at 0.000126 s⁻¹ and the kon is 302000 M⁻¹ s⁻¹.

B8: 8# (antibody, human IgG1, kappa, V domains shown)
VH: QVQLQESGPGLVRPSQTLSLTCTVSGYSITSDHAWSWVRQPPGRGLEWIGFISYSGITTYNPSLKSRVTMLRDTSKNQFSLRLSSVTAADTAVYYCARSLARTTAMDFWGQGSLVTVSS
VL: DIQMTQSPSSLSASVGDRVTITCRASQDISSYLNWYQQKPGKAPKLLIYYTSRLHSGVPSRFSGSGSGTDFTFTISSLQPEDIATYYCQQGNTLPYTFGQGTKVEIKR
notes: also called Sample # 8
As for B8, in assay [1], the Kd came out at 0.893 nM, the “Relative Affinity” value is 1.5 fold vs 25 (Tocilizumab), the koff was 0.000241 s⁻¹ and the kon was determined as 270000 M⁻¹ s⁻¹.

B9: 14# (antibody, human IgG1, kappa, V domains shown)
VH: QVQLQESGPGLVRPSQTLSLTCTVSGYSITSDHAWSWVRQPPGRGLEWIGFISYSGITTYNPSLKSRVTMLRDTSKNQFSLRLSSVTAADTAVYYCARSLARITAMDYWGQGSLVTVSS
VL: DIQMTQSPSSLSASVGDRVTITCRASQDISSYLNWYQQKPGKAPKLLIYYTSRLHSGVPSRFSGSGSGTDFTFTISSLQPEDIATYYCQQGNTLPYTFGQGTKVEIKR
notes: also called Sample # 14
B9: in assay [1], the Kd amounted to 0.181 nM, the “Relative Affinity” value is 7.4 fold vs 25 (Tocilizumab), the koff is 5.69e-05 s⁻¹ and the kon was determined as 314000 M⁻¹ s⁻¹. In addition, in assay [2], the affinity, expressed as Kd, was 0.261 nM; the “Relative Affinity” value is 6.6 fold vs 25 (Tocilizumab); the koff was 9.75e-05 s⁻¹; the kon came to 374000 M⁻¹ s⁻¹.

B10: 13# (antibody, human IgG1, kappa, V domains shown)
VH: QVQLQESGPGLVRPSQTLSLTCTVSGYSITSDHAWSWVRQPPGRGLEWIGFISYSGITTYNPSLKSRVTMLRDTSKNQFSLRLSSVTAADTAVYYCARCLARTTAMDYWGQGSLVTVSS
VL: DIQMTQSPSSLSASVGDRVTITCRASQDISSYLNWYQQKPGKAPKLLIYYTSRLHSGVPSRFSGSGSGTDFTFTISSLQPEDIATYYCQQGNTLPYTFGQGTKVEIKR
notes: also called Sample # 13
With B10, in assay [1], the affinity, expressed as Kd, was 0.373 nM; the “Relative Affinity” value was 3.6 fold vs 25 (Tocilizumab); the koff was 0.0001 s⁻¹; the kon was found to be 269000 M⁻¹ s⁻¹.

B11: 35# (antibody, human IgG1, kappa, V domains shown)
VH: QVQLQESGPGLVRPSQTLSLTCTVSGYSITSDHAWSWVRQPPGRGLEWIGYISYSGITTYNPSLKSRVTMLRDTSKNQFSLRLSSVTAADTAVYYCARSLARMTAMDYWGQGSLVTVSS
VL: DIQMTQSPSSLSASVGDRVTITCRASQDISSYLNWYQQKPGKAPKLLIYYTSRLHSGVPSRFSGSGSGTDFTFTISSLQPEDIATYYCQQGNTLPYTFGQGTKVEIKR
notes: also called Sample # 35
On to B11, for which, in assay [2], the Kd was 0.648 nM, the “Relative Affinity” value is 2.6 fold vs 25 (Tocilizumab), the koff came out at 0.000146 s⁻¹ and the kon is 225000 M⁻¹ s⁻¹.

B12: 7# (antibody, human IgG1, kappa, V domains shown)
VH: QVQLQESGPGLVRPSQTLSLTCTVSGYSITSDHAWSWVRQPPGRGLEWIGYISYSGITTYNPSLKSRVTMLRDTSKNQFSLRLSSVTAADTAVYYCARSLARTTAIDYWGQGSLVTVSS
VL: DIQMTQSPSSLSASVGDRVTITCRASQDISSYLNWYQQKPGKAPKLLIYYTSRLHSGVPSRFSGSGSGTDFTFTISSLQPEDIATYYCQQGNTLPYTFGQGTKVEIKR
notes: also called Sample # 7
Turning to B12, in assay [1], the Kd is 0.763 nM, the “Relative Affinity” value was 1.8 fold vs 25 (Tocilizumab), the koff was 0.000177 s⁻¹ and the kon was 232000 M⁻¹ s⁻¹.

B13: 45# (antibody, human IgG1, kappa, V domains shown)
VH: QVQLQESGPGLVRPSQTLSLTCTVSGYSITSDHAWSWVRQPPGRGLEWIGYISYSGITTYNPSLKSRVTMLRDTSKNQFSLRLSSVTAADTAVYYCARTLARTTAMDYWGQGSLVTVSS
VL: DIQMTQSPSSLSASVGDRVTITCRASQDISSYLNWYQQKPGKAPKLLIYYTSRLHSGVPSRFSGSGSGTDFTFTISSLQPEDIATYYCQQGNTLPYTFGQGTKVEIKR
notes: also called Sample # 45
As to B13, in assay [2], binding was put at a Kd of 0.605 nM, the “Relative Affinity” value was 2.8 fold vs 25 (Tocilizumab), the koff stood at 0.000106 s⁻¹ and the kon stood at 175000 M⁻¹ s⁻¹.
